As usually defined, the Kd is the free concentration of one partner at which half of the binding sites on the other are occupied at equilibrium, for simple one-to-one binding. Higher therefore signals weaker binding.

Positions count from the first letter of the chain named.

Among the data in patent US20260317399 (published 2026) are Kd values, retold here.

B1: BP557 (antibody)
chain 1: QVQLQESGPGLVKPSETLSLTCAVSGHSISHDHAWSWVRQPPGEGLEWIGFISYSGITNYNPSLQGRVTISRDNSKNTLYLQMNSLRAEDTAVYYCARSLARTTAMDYWGEGTLVTVSSASTKGPSVFPLAPSSKSTSGGTAALGCLVKDYFPEPVTVSWNSGALTSGVHTFPAVLQSSGLYSLSSVVTVPSSSLGTQTYICNVNHKPSNTKVDKKVEPKSCDKTHTCPPCPAPELLGDDSVFLFPPKPKDTLMISRTPEVTCVVVDVGDEDGEVKFNWYVDGVEVHNAKTKPREEQDNSTYRVVSVLTVLHQDWLNGKEYKCKVSNKALPRPIEKTISKAKGQPREPQVYTLPPSRDELTKNQVSLTCLVKGFYPSDIAVEWESNGQPENNYKTTPPVLDSDGSFFLYSKLTVDKSRWQQGNVFSCSVMHEALHNHYTQESLSLSP
chain 2: not shown
B2: IL6R-BP419/IL6R-L (antibody)
chain 1: B1 chain 1 with E235D, L237F, G269S, D270E
chain 2: not shown
B3: IL6R-AP029/IL6R-BP409/IL6R-L (antibody)
chain 1: B1 chain 1 with E235D, G269S, D270E, D358K, H437R, E441K
chain 2: B1 chain 1 with E235D, L237E, G269S, D270E
chain 3: not shown
B4: IL6R-BP404/IL6R-L (antibody)
chain 1: B1 chain 1 with E235D, L236Y, G269S, D270E
chain 2: not shown
B5: IL6R-AP029/IL6R-BP410/IL6R-L (antibody)
chain 1: B1 chain 1 with E235D, G269S, D270E, D358K, H437R, E441K
chain 2: B1 chain 1 with E235D, L237T, G269S, D270E
chain 3: not shown
B6: IL6R-AP029/IL6R-BP408/IL6R-L (antibody)
chain 1: B1 chain 1 with E235D, G269S, D270E, D358K, H437R, E441K
chain 2: B1 chain 1 with E235D, L237Q, G269S, D270E
chain 3: not shown
B7: IL6R-AP029/IL6R-BP407/IL6R-L (antibody)
chain 1: B1 chain 1 with E235D, G269S, D270E, D358K, H437R, E441K
chain 2: B1 chain 1 with E235D, L237D, G269S, D270E
chain 3: not shown
B8: IL6R-BP408/IL6R-L (antibody)
chain 1: B1 chain 1 with E235D, L237Q, G269S, D270E
chain 2: not shown
B9: IL6R-AP002/IL6R-BP257/IL6R-L (antibody)
chain 1: B1 chain 1 with E235D, G269S, D298Y, D358K, H437R, E441K
chain 2: B1 chain 1 with S126E, E235D, G269S, D298Y
chain 3: not shown
B10: IL6R-AP002/IL6R-BP256/IL6R-L (antibody)
chain 1: B1 chain 1 with E235D, G269S, D298Y, D358K, H437R, E441K
chain 2: B1 chain 1 with S126D, E235D, G269S, D298Y
chain 3: not shown
B11: IL6R-AP009/IL6R-BP260/IL6R-L (antibody)
chain 1: B1 chain 1 with E235D, G269S, D358K, H437R, E441K
chain 2: B1 chain 1 with S126E, E235D, G269S
chain 3: not shown
B12: IL6R-BP259/IL6R-L (antibody)
chain 1: B1 chain 1 with S126D, E235D, G269S
chain 2: not shown
B13: IL6R-AP009/IL6R-BP259/IL6R-L (antibody)
chain 1: B1 chain 1 with E235D, G269S, D358K, H437R, E441K
chain 2: B1 chain 1 with S126D, E235D, G269S
chain 3: not shown
B14: IL6R-BP256/IL6R-L (antibody)
chain 1: B1 chain 1 with S126D, E235D, G269S, D298Y
chain 2: not shown
B15: IL6R-BP260/IL6R-L (antibody)
chain 1: B1 chain 1 with S126E, E235D, G269S
chain 2: not shown
B16: IL6R-BP257/IL6R-L (antibody)
chain 1: B1 chain 1 with S126E, E235D, G269S, D298Y
chain 2: not shown

The first test addresses T1, FcgRIa (human, UniProt P12314).
T1 chain: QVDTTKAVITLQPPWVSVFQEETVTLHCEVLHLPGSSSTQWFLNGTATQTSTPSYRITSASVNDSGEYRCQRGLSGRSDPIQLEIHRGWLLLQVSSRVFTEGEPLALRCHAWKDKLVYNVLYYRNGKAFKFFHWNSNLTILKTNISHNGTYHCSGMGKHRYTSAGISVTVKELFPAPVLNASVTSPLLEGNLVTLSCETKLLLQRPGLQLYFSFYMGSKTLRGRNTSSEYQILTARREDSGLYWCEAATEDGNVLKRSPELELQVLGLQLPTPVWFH
Kind of test: SPR. (SPR reads the build-up and loss of mass on a sensor chip optically.)
In turn, B1 displayed a Kd of 0.013 µM.

In the next test the target is T2, FcgRIIaH (human, UniProt P12318).
T2 chain: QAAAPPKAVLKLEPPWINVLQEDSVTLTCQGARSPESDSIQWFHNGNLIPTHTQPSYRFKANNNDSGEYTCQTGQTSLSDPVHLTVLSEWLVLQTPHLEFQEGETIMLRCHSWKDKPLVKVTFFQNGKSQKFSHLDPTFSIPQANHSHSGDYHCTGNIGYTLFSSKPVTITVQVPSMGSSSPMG
Kind of test: SPR.
Molecule B2 had a Kd of 38 µM. The same measure, in the same setting: for B3 the value was 9.4 µM; for B4, 3.4 µM.

For the molecule B5, the Kd amounted to 5.1 µM.

Turning to B6, the Kd was 8.2 µM. Against the preceding molecule, the Kd is about 1.6-fold higher.

For B7, the Kd is 8.9 µM. This Kd and that of the molecule before are within 1.5-fold of each other.

With B8, the Kd was 77 µM. This Kd is about 8.7-fold higher than that of the molecule before.

In the next test the target is T3, FcgRIIIaV (human, UniProt P08637). Kind of test: SPR.
T3 sequence (P08637 17-208 F176V): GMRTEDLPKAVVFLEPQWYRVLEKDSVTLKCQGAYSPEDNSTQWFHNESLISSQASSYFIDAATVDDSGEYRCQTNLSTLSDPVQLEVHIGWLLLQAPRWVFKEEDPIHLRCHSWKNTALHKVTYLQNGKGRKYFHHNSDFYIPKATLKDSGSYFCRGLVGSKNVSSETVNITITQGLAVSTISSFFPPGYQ
B9 displayed a Kd of 14 µM. B10 showed a Kd of 17 µM.

Consider B11, for which the Kd worked out at 16 µM. For the molecule B12, the Kd worked out at 11 µM. This Kd and that of the molecule before are within 1.5-fold of each other. Turning to B13, the Kd was found to be 22 µM. Still for that read-out and setting: for B14 the value was 11 µM; for B15, 21 µM. Still for that read-out and setting: then B16, with 19 µM.

A further test has as its target T3, FcgRIIIaV. The experiment in a line: SPR. The source holds these as a separate data set.
B2 yielded a Kd of 38 µM. The same measure, in the same setting: then B3, with 28 µM; and B4, with 33 µM; and B5, with 21 µM.

Take B6: the affinity, expressed as Kd, was 31 µM. Same read-out and setting: then B7, with 23 µM. As for B8, binding was put at a Kd of 50 µM. Against the preceding molecule, the Kd is about 2.2-fold higher.

A further test concerns the target T2, FcgRIIaH. Kind of test: SPR. The source holds these as a separate data set.
In turn, B12 had a Kd of 18 µM. The same measure, in the same setting: for B14 the value was 21 µM.

Molecule B15 displayed a Kd of 3.9 µM. As for B16, the Kd was 39 µM.
